Measurements as given in patent US20080044360A1 (COLLAGEN MEDICAL, published 2008).
Bridge positions count the residues as written; N and C are the ends. Square brackets hold non-standard residues; d marks the D form. Primed or numbered codes have the meaning given here. Side chains are listed from the residue outwards. Ends that are not written are not given here. Gd^D = GdDOTAGA (gadolinium DOTAGA chelate); Bip = N[C@@H](Cc1ccc(-c2ccccc2)cc1)C(=O)O; Dab = NCC[C@H](N)C(=O)O; Gd^T″ = GdDTPA-thiourea; Dap = NC[C@H](N)C(=O)O

Experiments:
[1] = molecular target: T1, human collagen type I, acid soluble, extracted from placenta (Sigma C7774) (human, UniProt P02452 162-1218; P08123 80-1119); assay: dried collagen assay
T1 construct: tissue extract, gelled and dried in wells; also called dried human collagen; h-Collagen

[2] = molecular target: T2, rat collagen, acid soluble, type I, rat tail (Upstate 08-115) (rat, UniProt P02454 152-1207; P02466 86-1125); assay: dried collagen assay
T2 construct: tissue extract, gelled and dried in wells; also called dried rat collagen
T2 sequence (P02454 152-1207, chain 1 of 2): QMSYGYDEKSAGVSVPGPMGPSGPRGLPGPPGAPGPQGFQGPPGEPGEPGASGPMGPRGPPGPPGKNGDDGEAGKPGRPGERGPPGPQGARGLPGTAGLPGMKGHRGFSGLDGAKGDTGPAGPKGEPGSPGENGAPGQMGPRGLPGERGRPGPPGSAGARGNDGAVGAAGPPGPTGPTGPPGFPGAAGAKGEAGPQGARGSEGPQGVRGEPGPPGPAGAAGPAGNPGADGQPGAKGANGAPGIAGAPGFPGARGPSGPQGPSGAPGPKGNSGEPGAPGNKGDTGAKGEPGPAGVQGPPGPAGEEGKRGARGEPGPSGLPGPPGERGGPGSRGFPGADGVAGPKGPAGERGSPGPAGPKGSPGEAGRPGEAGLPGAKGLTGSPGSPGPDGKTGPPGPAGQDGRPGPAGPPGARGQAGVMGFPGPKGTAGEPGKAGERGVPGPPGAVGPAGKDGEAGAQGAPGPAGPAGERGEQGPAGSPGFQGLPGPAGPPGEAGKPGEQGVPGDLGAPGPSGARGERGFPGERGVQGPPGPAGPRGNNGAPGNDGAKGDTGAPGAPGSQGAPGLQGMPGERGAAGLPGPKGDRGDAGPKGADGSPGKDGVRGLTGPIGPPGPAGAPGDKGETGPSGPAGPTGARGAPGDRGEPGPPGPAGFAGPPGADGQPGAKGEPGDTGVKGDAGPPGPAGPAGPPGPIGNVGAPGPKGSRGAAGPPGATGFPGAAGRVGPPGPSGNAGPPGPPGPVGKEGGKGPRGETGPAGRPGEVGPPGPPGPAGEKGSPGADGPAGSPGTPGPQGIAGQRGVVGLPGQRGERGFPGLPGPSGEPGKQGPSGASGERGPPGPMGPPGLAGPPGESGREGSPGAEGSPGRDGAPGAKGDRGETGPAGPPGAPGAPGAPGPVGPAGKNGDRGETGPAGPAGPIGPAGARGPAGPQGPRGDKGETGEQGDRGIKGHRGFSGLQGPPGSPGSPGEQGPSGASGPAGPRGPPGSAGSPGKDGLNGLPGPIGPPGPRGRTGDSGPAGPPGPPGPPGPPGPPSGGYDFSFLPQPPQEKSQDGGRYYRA
T2 sequence (P02466 86-1125, chain 2 of 2): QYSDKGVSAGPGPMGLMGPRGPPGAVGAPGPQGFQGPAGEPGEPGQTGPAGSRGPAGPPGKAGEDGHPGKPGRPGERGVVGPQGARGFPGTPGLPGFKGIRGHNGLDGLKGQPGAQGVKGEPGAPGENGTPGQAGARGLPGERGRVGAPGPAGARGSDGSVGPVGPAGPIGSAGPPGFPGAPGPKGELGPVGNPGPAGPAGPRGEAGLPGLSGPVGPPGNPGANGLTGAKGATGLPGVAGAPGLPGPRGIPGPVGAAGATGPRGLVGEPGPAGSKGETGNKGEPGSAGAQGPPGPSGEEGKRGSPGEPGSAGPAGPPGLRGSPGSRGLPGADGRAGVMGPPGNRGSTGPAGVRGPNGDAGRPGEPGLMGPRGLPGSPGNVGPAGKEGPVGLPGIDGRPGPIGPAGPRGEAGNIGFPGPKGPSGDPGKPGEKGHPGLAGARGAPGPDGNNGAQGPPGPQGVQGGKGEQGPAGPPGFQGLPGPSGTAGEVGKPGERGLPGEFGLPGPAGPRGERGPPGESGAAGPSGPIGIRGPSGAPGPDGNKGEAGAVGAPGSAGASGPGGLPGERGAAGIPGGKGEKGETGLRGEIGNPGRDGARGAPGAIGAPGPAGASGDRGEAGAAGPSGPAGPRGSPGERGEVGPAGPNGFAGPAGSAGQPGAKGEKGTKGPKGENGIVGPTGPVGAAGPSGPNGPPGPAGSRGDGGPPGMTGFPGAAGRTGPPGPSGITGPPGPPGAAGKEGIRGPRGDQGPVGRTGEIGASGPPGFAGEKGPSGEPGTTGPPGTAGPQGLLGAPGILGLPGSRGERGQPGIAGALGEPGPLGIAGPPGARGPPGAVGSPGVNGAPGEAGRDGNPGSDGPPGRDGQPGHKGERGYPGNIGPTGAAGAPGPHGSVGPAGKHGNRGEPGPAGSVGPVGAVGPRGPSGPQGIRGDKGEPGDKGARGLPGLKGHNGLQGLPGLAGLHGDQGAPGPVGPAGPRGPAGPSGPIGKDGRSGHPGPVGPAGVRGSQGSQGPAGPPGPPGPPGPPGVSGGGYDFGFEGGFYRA

T1 sequence (P02452 162-1218 limits assumed, chain 1 of 2): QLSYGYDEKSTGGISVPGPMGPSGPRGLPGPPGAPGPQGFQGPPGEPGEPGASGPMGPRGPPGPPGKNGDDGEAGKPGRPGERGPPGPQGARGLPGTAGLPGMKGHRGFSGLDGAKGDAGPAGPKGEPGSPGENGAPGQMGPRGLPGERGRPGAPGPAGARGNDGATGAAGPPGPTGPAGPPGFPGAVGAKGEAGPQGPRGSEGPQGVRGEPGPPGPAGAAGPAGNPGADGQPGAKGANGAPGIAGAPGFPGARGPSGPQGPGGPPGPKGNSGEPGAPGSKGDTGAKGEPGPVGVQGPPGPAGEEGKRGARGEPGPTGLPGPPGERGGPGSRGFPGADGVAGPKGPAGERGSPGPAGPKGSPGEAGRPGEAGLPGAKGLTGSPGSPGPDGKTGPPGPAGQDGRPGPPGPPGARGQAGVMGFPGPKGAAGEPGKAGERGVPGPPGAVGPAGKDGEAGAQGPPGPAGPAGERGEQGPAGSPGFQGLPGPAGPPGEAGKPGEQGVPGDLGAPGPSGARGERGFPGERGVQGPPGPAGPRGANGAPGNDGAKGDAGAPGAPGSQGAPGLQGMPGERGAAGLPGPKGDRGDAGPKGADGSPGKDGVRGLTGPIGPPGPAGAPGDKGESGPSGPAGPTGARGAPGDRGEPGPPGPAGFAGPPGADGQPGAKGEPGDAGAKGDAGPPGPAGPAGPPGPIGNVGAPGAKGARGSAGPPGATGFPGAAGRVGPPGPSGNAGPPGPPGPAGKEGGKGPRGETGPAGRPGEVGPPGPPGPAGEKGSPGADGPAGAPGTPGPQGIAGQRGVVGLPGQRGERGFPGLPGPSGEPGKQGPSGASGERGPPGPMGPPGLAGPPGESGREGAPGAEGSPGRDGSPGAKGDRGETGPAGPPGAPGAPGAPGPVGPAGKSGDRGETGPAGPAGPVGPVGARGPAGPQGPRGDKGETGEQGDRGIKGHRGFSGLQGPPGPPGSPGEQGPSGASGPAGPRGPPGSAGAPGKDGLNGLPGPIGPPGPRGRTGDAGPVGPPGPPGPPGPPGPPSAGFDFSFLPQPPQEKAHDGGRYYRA
T1 sequence (P08123 80-1119 limits assumed, chain 2 of 2): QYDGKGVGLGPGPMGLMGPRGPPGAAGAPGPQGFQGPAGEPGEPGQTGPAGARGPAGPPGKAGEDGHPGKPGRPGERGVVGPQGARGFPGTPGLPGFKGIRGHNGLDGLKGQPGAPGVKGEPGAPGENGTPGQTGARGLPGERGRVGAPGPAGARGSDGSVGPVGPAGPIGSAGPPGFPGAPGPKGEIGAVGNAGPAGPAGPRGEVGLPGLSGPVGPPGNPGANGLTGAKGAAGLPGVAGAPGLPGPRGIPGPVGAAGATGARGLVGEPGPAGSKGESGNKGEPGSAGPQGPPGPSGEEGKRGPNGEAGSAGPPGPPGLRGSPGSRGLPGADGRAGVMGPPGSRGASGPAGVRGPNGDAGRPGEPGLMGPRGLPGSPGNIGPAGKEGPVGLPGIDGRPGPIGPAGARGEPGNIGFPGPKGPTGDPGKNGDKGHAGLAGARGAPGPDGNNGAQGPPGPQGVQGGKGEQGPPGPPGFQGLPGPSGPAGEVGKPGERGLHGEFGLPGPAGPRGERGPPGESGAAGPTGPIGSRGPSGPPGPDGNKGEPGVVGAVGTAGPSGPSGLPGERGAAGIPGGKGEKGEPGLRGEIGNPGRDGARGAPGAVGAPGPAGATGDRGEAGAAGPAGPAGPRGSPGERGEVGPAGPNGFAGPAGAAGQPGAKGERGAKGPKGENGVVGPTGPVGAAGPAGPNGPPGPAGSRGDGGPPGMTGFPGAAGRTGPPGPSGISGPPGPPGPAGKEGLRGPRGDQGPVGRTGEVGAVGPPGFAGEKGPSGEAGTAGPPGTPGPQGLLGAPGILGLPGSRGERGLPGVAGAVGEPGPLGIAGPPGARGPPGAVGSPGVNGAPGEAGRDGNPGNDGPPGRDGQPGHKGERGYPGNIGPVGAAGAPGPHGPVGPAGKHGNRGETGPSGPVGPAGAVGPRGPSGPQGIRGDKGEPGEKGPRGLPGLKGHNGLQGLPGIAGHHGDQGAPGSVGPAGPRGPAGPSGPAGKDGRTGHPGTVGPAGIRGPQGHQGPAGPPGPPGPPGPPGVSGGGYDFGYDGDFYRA

% bound [1]	% bound [2]	Binder
94%	93%	{Gd^T″}-K(Gd^T″)WHCYTK(Gd^T″)FPHHYCVY[Bip] (disulfide 4-13) [Compound ID 1008]
29%	30%	{Gd^D}-K(Gd^D)K(Gd^D)GWHCYTYFPHHYCTYG (disulfide 6-15 (inferred)) [Compound ID 1015]
93%	96%	{Gd^T″}-GK([Gly-Gd^T″])WHCYTK(Gd^T″)FPHHYCVY[Bip]R (disulfide 5-14) [Compound ID 1009]
92%	89%	{Gd^T″}-GK([Gly-Gd^T″])WHCYTK(Gd^T″)FPHHYCVYYY (disulfide 5-14 (inferred)) [Compound ID 1010]
91%	92%	{Gd^T″}-GK([Gly-Gd^T″])WHCYTK(Gd^T″)FPHHYCK(Gd^T″)Y[Bip] (disulfide 5-14) [Compound ID 1012]
87%	92%	{Gd^T″}-G[Dab]([Gly-Gd^T″])WHCYTK(Gd^T″)FPHHYCVY[Bip] (disulfide 5-14) [Compound ID 1007]
48%	50%	{Gd^D}-K(Gd^D)K(Gd^D)AWHCYTYFPHHYCVYG (disulfide 6-15 (inferred)) [Compound ID 1016]

Continued, binder first:

Binder	% bound [1]	% bound [2]
{Gd^T″}-GYK([Tyr-Gly-Gd^T″])WHCTTYFPHHYCLYG (disulfide 6-15 (inferred); not fully specified (C-terminus)) [Compound ID 981]	73%	81%
{Gd^T″}-GFK([Phe-Gly-Gd^T″])WHCTTYFPHHYCLYG (disulfide 6-15 (inferred); not fully specified (C-terminus)) [Compound ID 983]	58%	59%
{Gd^T″}-GHK([His-Gly-Gd^T″])WHCTTYFPHHYCLYG (disulfide 6-15 (inferred); not fully specified (C-terminus)) [Compound ID 984]	67%	69%
{Gd^T″}-GVK([Val-Gly-Gd^T″])WHCTTYFPHHYCLYG (disulfide 6-15 (inferred); not fully specified (C-terminus)) [Compound ID 982]	40%	47%
{Gd^T″}-[Dap](Gd^T″)[Dap]([Dap-Gd^T″-Gd^T″])WHCYTYFPHHYCVYG (disulfide 5-14; also: X2: inner Dap bears two Gd^T) [Compound ID 1002]	44%	45%
{Gd^T″}-GK([Gly-Gd^T″])WHCYT[Dab](Gd^T″)FPHHYCVY[Bip] (disulfide 5-14) [Compound ID 1005]	90%	95%
{Gd^T″}-GK([Gly-Gd^T″])WHCYTK(Gd^T″)FPHHYCVY[Bip] (disulfide 5-14) [Compound ID 1004]	91%	90%
{Gd^D}-GK([Gly-Gd^D])WHCTTK(Gd^D)FPHHYCLY[Bip] (disulfide 5-14) [Compound ID 1001]	83%	81%
{Gd^T″}-GK([Gly-Gd^T″])WHCYT[Dap](Gd^T″)FPHHYCVY[Bip] (disulfide 5-14) [Compound ID 1006]	89%	87%
